Laboratory results taken from US20040053837A1 (LUDWIG INSTITUTE FOR CANCER RESEARCH, published 2004).

Tests used:
[1] = biological target: T1, human PDGF alpha-receptor (human, UniProt P16234 24-1089); assay: self-displacement standard curve, unlabeled PDGF-BB against 125I-PDGF-BB on PAE-1 cells expressing PDGF alpha-receptor
T1 construct: whole, on cells; also called PDGF receptor alpha; PDGFR-alpha
Experimental: (§1) Next, full length and truncated PDGF-C were tested for their capacity to bind to human PDGF receptors alpha and beta by analyzing their abilities to compete with PDGF-BB for binding to PDGF receptors. The binding experiments were performed on porcine aortic endothelial-1 (PAE-1) cells stably expressing the human PDGF receptors alpha and beta (Eriksson et al., EMBO J, 1992, 11, 543-550). Binding experiments were performed essentially as in Heldin et al. (EMBO J, 1988, 7:1387-1393). Different concentrations of human full-length and truncated PDGF-C, or human PDGF-BB were mixed with 5 ng/ml of ¹²⁵I-PDGF-BB in binding buffer (PBS containing 1 mg/ml of bovine serum albumin). Aliquots were incubated with the receptor expressing PAE-1 cells plated in 24-well culture dishes on ice for 90 minutes. After three washes with binding buffer, cell-bound ¹²⁵I -PDGF-BB was extracted by lysis of cells in 20 mM Tris-HCl, pH 7.5, 10% glycerol, 1% Triton X-100. The amount of cell bound radioactivity was determined in a gamma-counter. A standard curve for the binding of ¹²⁵I-labeled PDGF BB homodimers to PAE-1 cells expressing PDGF alpha-receptor is shown in FIG. 18. An increasing excess of the unlabeled protein added to the incubations competed efficiently with cell association of the radiolabeled tracer.

[2] = biological target: T1, human PDGF alpha-receptor; assay: competition with 125I-PDGF-BB on PAE-1 cells expressing human PDGF alpha-receptor
Experimental: as §1

human PDGF beta-receptor = biological target: T2, human PDGF beta-receptor (human, UniProt P09619 33-1106); assay: direct binding of 125I-labeled truncated PDGF-C to PAE-1 cells expressing PDGF beta receptor
T2 construct: whole, on cells; also called PDGF receptor beta; PDGFR-beta
Experimental: To assess the interactions between truncated PDGF-C and the PDGF alpha and beta receptors, truncated PDGF-C was tested for its capacity to bind to porcine aortic endothelial-1 (PAE-1) cells expressing PDGF alpha or beta receptors, respectively (Eriksson et al., EMBO J, 1992 11:543-550). The binding experiments were performed essentially as described in Heldin et al. (EMBO J, 1988 7:1387-1393). Five micrograms of truncated PDGF-C protein in ten microliters of sodium borate buffer was radiolabeled using the Bolton-Hunter reagent (Amersham) to a specific activity of 4×10⁵ cpm/ng. Different concentrations of radiolabeled truncated PDGF-C, with or without added unlabeled protein, in binding buffer (PBS containing 1 mg/ml of bovine serum albumin) was added to the receptor expressing PAE-1 cells plated in 24-well culture dishes on ice for 90 minutes. After three washes with binding buffer, cell-bound ¹²⁵I-labeled PDGF-C was extracted by lysis of cells in 20 mM Tris-HCl, pH 7.5, 10% glycerol, 1% Triton X-100. The amount of cell-bound radioactivity was determined in a gamma-counter. Non-specific binding was estimated by including a 100-fold molar excess of truncated PDGF-C in some experiments. […] The binding was specific as radiolabeled PDGF-C was quantitatively displaced by a 100-fold molar excess of unlabeled protein.

VEGFR-1-Ig = biological target: T3, VEGFR-1-Ig (human, UniProt P17948 27-758); assay: pull-down of 35S-labelled conditioned medium with receptor-Ig on protein A-Sepharose, SDS-PAGE, phosphorimager
T3 construct: extracellular domain; Transiently expressed in 293 EBNA cells and captured on protein A-Sepharose; The construct is cited from Olofsson et al. 1998; also called soluble Ig-fusion protein containing the extracellular domain of human VEGFR-1; not shown: Ig part of the fusion
Experimental: (§2) To assess the interactions between full length and truncated PDGF-C and the VEGF receptors, full length and truncated PDGF-C were tested for their capacity to bind to soluble Ig-fusion proteins containing the extracellular domains of human VEGFR-1, VEGFR-2 and VEGFR-3 (Olofsson et al., Proc. Natl. Acad. Sci. USA, 1998 95:11709-11714). The fusion proteins, designated VEGFR-1-Ig, VEGFR-2-Ig and VEGFR-3-Ig, were transiently expressed in human 293 EBNA cells. All Ig fusion proteins were human VEGFRs. Cells were incubated for 24 hours after transfection, washed with Dulbecco's Modified Eagle Medium (DMEM) containing 0.2% bovine serum albumin and starved for 24 hours. The fusion proteins were then precipitated from the clarified conditioned medium using protein A-Sepharose beads (Pharmacia). The beads were combined with 100 microliters of 10× binding buffer (5% bovine serum albumin, 0.2% Tween 20 and 10 μg/ml heparin) and 900 microliter of conditioned medium from 293 cells that had been transfected with mammalian expression plasmids encoding full length or truncated PDGF-C or control vector, then metabolically labeled with ³⁵S-cysteine and methionine (Promix, Amersham) for 4 to 6 hours. After 2.5 hours, at room temperature, the Sepharose beads were washed 3 times with binding buffer at 4° C., once with phosphate buffered saline and boiled in SDS-PAGE buffer. Labeled proteins that were bound to the Ig-fusion proteins were analyzed by SDS-PAGE under reducing conditions. Radiolabeled proteins were detected using a phosphorimager analyzer.

VEGFR-3-Ig = biological target: T4, VEGFR-3-Ig (human, UniProt P35916 25-775); assay: as above
T4 construct: extracellular domain; Transiently expressed in 293 EBNA cells and captured on protein A-Sepharose; also called soluble Ig-fusion protein containing the extracellular domain of human VEGFR-3; not shown: Ig part of the fusion
T4 sequence (looked up): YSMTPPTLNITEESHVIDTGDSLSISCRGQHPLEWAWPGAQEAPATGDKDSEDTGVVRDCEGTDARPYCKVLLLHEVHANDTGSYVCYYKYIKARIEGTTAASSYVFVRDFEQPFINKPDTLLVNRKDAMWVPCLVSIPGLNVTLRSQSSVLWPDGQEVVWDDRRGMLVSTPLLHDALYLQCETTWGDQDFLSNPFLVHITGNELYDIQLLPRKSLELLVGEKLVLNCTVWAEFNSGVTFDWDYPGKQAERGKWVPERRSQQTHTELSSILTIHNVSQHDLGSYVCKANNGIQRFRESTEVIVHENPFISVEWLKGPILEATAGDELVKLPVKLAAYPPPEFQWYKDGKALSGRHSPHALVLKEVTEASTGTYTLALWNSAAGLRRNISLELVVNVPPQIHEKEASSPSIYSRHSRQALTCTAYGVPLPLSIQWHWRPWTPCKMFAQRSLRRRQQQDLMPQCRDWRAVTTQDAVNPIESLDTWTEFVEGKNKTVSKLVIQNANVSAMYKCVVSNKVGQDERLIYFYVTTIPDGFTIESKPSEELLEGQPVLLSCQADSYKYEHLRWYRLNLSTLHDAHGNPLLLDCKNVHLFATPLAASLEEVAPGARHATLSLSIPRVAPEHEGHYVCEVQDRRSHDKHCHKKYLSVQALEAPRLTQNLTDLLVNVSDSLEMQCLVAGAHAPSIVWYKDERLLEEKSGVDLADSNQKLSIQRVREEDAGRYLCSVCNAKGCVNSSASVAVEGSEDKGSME
Experimental: as §2

VEGFR-2-Ig = biological target: T5, VEGFR-2-Ig (human, UniProt P35968 20-764); assay: as above
T5 construct: extracellular domain; Transiently expressed in 293 EBNA cells and captured on protein A-Sepharose; also called soluble Ig-fusion protein containing the extracellular domain of human VEGFR-2; not shown: Ig part of the fusion
Experimental: as §2

T1 sequence (P16234 24-1089): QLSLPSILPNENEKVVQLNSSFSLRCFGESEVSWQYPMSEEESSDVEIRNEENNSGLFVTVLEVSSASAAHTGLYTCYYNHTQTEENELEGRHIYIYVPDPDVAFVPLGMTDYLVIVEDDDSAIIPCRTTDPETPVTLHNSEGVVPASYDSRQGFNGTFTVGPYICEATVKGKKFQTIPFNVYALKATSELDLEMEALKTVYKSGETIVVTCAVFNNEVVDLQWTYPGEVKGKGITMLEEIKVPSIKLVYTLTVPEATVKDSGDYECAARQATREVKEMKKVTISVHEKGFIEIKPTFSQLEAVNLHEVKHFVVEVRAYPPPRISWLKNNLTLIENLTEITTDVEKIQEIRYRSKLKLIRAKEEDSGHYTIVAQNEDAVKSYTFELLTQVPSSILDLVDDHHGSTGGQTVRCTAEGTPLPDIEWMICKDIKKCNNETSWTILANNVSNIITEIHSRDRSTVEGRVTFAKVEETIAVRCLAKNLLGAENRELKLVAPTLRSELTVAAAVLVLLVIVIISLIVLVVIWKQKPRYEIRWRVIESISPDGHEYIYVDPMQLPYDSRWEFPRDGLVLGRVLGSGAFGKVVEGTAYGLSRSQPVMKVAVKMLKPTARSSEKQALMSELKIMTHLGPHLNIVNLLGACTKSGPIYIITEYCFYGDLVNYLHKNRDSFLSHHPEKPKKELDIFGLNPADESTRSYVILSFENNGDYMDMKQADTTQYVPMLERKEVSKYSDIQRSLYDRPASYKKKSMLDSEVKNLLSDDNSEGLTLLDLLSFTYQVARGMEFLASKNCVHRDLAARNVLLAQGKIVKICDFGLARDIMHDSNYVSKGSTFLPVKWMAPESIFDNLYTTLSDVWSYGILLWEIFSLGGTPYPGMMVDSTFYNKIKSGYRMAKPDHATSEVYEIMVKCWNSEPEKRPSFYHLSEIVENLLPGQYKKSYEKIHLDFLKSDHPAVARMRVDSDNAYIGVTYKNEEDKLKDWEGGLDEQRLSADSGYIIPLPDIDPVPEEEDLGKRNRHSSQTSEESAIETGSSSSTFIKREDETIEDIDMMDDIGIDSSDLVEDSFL
T2 sequence (P09619 33-1106): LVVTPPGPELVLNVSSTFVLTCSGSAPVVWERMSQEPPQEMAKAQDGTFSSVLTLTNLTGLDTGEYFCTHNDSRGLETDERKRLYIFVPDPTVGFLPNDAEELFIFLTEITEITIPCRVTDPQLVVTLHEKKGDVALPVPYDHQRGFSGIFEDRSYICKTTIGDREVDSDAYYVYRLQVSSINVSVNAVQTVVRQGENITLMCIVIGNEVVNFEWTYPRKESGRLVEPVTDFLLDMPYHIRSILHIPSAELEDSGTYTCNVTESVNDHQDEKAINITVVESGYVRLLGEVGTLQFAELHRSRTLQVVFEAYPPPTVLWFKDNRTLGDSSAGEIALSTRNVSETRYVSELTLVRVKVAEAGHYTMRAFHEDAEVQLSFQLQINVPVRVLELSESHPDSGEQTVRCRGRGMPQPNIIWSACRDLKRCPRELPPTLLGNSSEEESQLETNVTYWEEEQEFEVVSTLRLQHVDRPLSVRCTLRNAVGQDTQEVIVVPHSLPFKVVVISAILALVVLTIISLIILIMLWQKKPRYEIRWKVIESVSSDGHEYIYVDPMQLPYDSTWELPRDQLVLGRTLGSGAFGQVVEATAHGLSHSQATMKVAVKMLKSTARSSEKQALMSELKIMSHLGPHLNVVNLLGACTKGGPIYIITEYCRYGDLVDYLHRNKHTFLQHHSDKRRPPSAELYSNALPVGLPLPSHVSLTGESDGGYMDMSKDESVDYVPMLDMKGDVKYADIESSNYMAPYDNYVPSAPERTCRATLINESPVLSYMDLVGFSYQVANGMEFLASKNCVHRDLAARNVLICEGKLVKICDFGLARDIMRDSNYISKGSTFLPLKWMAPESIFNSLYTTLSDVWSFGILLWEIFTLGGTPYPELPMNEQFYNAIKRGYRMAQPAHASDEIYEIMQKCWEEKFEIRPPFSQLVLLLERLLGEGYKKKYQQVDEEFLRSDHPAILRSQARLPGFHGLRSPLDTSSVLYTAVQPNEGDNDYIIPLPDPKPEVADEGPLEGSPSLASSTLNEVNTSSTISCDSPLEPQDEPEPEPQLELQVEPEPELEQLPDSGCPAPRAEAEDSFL
T5 sequence (P35968 20-764): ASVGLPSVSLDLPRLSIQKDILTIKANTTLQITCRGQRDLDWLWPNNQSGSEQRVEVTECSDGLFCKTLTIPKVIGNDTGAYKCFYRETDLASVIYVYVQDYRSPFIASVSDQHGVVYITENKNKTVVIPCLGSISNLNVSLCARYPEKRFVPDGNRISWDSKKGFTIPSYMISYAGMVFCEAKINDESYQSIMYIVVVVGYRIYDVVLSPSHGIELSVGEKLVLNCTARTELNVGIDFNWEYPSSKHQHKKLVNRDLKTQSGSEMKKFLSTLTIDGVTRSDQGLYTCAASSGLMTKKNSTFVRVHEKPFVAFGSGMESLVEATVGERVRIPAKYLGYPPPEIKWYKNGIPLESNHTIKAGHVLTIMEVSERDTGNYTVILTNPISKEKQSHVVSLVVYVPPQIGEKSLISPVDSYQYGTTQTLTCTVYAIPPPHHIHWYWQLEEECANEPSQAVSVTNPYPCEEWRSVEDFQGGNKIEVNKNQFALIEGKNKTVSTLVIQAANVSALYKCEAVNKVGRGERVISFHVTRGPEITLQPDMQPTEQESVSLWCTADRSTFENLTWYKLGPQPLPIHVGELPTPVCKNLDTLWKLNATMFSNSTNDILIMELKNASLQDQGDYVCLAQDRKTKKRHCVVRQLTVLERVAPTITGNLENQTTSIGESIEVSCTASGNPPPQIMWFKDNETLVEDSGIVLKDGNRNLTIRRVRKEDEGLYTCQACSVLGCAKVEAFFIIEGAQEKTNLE
T3 sequence (P17948 27-758): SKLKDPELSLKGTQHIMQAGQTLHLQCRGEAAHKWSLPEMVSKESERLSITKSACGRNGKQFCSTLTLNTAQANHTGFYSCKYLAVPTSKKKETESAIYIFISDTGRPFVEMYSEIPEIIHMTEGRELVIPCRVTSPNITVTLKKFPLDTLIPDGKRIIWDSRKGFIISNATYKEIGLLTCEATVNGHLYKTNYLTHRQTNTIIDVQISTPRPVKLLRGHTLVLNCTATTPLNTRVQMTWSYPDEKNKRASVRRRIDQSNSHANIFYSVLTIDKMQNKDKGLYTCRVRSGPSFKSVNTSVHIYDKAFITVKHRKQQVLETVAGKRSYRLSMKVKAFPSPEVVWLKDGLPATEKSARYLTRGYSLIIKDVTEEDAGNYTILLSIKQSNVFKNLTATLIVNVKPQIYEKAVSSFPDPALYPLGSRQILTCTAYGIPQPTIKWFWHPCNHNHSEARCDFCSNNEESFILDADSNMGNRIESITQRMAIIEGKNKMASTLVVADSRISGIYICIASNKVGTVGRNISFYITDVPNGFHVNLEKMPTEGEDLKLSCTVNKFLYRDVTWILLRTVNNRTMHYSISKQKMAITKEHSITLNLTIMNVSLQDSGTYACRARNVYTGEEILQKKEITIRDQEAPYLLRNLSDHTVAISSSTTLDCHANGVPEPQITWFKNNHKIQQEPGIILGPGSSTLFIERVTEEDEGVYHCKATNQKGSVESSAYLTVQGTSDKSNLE

B1: human PDGF-BB homodimer (ligand, UniProt P01127 82-190, looked up)
chain: SLGSLTIAEPAMIAECKTRTEVFEISRRLIDRTNANFLVWPPCVEVQRCSGCCNNRNVQCRPTQVQLRPVQVRKIEIVRKKPIFKKATVTLEDHLACKCETVAAARPVT
modifications: 125I label on the tracer form
notes: also called labeled PDGF-BB
- binding result [1]: binds

B2: truncated human PDGF-CC homodimer, PDGF/VEGF homology domain only (core domain, residues 230-345; recombinant, baculovirus-infected Sf9 cells, C-terminal … (ligand, not shown: small tags and cut ends)
chain: GRKSRVVDLNLLTEEVRLYSCTPRNFSVSIREELKRTDTIFWPGCLLVKRCGGNCACCLHNCNECQCVPSKVTKKYHEVLQLRPKTGVRGLHKSLTDVALEHHEECDCVCRGSTGG
notes: Secreted disulfide-bonded dimer (36 kDa non-reduced, 24 kDa monomer); also called cPDGF-CC; truncated PDGF-C
- binding result [2]: binds
- binding result (human PDGF beta-receptor): no binding

B3: truncated human PDGF-C expressed in 293 cells from a mammalian expression plasmid (35S-labelled conditioned medium) (ligand)
chain: B2 chain
notes: also called truncated PDGF-C; radiolabeled PDGF-C
- binding result (VEGFR-1-Ig): no binding
- binding result (VEGFR-3-Ig): no binding
- binding result (VEGFR-2-Ig): no binding
